In patent publication US20180179273A1 (H LUNDBECK A S, published 2018):
Changes are numbered by the printed parent chain. Where “and” joins values, the source holds several entries; their conditions need not be identical. Equal values may be shown once. Read-outs that look alike come from different tables or passages of the source.

How the values were obtained:
human alpha-synuclein [1] = target: T1, human alpha-synuclein (human, UniProt P37840 1-140); assay: SPR Biacore 3000, synuclein ligand format
human alpha-synuclein [2] = target: T1, human alpha-synuclein; assay: SPR Biacore 3000, IgG captured by anti-human IgG on CM5 chip
human alpha-synuclein [3] = target: T1, human alpha-synuclein; assay: as above; remark: listed apart in the source
human alpha-synuclein [4] = target: T1, human alpha-synuclein; assay: SPR BIAcore 3000, antibody captured by goat anti-human IgG on CM5 chip, human alpha-synuclein as analyte; calculated binding constants [continued) C]
human alpha-synuclein [5] = target: T1, human alpha-synuclein; assay: as above; remark: listed apart in the source
human gamma-synuclein [6] = target: T2, human gamma-synuclein (human, UniProt O76070 1-127); assay: Octet (ForteBio), antibody coupled to amine-reactive sensors, synuclein in solution [continued), Human gamma-syn]
T2 construct: Screening ligand; also called Gamma Panel
Text: (§1) Amine reactive sensors (ForteBio, art. no. 18-0008) were used for immobilization of HuMabs. […] Activated sensors were immobilized with HuMabs during 600 seconds.

human beta-synuclein [7] = target: T3, human beta-synuclein (human, UniProt Q16143 1-134); assay: Octet (ForteBio), antibody coupled to amine-reactive sensors, synuclein in solution [Human beta-syn]
T3 construct: Screening ligand; also called Beta Panel
Text: as §1

human alpha-synuclein [8] = target: T1, human alpha-synuclein; assay: SPR BIAcore T200, human alpha-synuclein immobilised, antibody as analyte, 1:1 binding fit
human gamma-synuclein [9] = target: T2, human gamma-synuclein; assay: Octet (ForteBio), antibody coupled to amine-reactive sensors, synuclein in solution [continued), Human gamma-syn]; remark: listed apart in the source
human beta-synuclein [10] = target: T3, human beta-synuclein; assay: Octet (ForteBio), antibody coupled to amine-reactive sensors, synuclein in solution [continued), Human beta-syn]
human alpha-synuclein [11] = target: T1, human alpha-synuclein; assay: SPR BIAcore 3000, antibody captured by goat anti-human IgG on CM5 chip, human alpha-synuclein as analyte; calculated binding constants [continued) C]; remark: listed apart in the source

T2 sequence (O76070 whole entry): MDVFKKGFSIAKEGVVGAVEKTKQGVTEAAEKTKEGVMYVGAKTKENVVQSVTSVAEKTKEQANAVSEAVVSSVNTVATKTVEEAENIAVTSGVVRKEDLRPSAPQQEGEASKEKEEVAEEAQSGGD
T3 sequence (Q16143 whole entry): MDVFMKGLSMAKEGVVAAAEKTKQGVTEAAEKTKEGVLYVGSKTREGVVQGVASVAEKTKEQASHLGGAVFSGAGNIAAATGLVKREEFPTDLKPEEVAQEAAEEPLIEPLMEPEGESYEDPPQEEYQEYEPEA

B1: ch2E6 (antibody, V domains shown)
VH: QVQLQQPGAELVKPGASVKLSCTASGYTFTSYWMHWMKQRPGRGLEWIGRIDPNSGTTKYNVNFKTKATLTVDKPSSTAYMHLSSLTSEDSAVYYCARLGHYGNLYAMDYWGQGTSVT
VL: QIVLTQSPAIMSASPGEKVTMTCSASSSVSYMHWYQQKSGTSPKRWIYDTSKLASGVPTRFSGSGSGTSYSLTISSMDTEDAATYYCQQWSSNPPTFGAGTKLELK
notes: also called chimeric 2E6
Human alpha-synuclein [1]
  KD improvement: 1 fold
  Ka: 2.38e+08 M⁻¹
  Kd: 4.21 nM
  koff: 0.000265 s⁻¹
  kon: 62900 M⁻¹ s⁻¹
Human alpha-synuclein [2]
  KD improvement: 1 fold
  Ka: 1.76e+07 M⁻¹
  Kd: 56.7 nM
  koff: 0.00139 s⁻¹
  kon: 24500 M⁻¹ s⁻¹
Human alpha-synuclein [3]
  KD improvement: 1 fold
  Ka: 1.76e+07 M⁻¹
  Kd: 56.7 nM
  koff: 0.00139 s⁻¹
  kon: 24500 M⁻¹ s⁻¹

B2: 2E6-HLD-1 (antibody, V domains shown)
VH: QVQLVQSGAEVKKPGASVKVSCKASGYTFTSYWMHWMRQAPGQGLEWIGRIDPNSGTTKYNVNFKTRATLTVDKSTSTAYMELSSLRSEDTAVYYCARLGHYGNLYAMDYWGQGTLVT
VL: EIVLTQSPATLSLSPGERATLSCSASSSVSYMHWYQQKPGQAPRRWIYDTSKLASGVPARFSGSGSGTDYTLTISSLEPEDFAVYYCQQWSSNPPTFGQGTKLEIKR
notes: Humanized 2E6 tested as IgG; also called Humanized HLD-1
Human alpha-synuclein [1]
  KD improvement: 2 fold
  Ka: 5.81e+08 M⁻¹
  Kd: 1.72 nM
  koff: 0.000212 s⁻¹
  kon: 123000 M⁻¹ s⁻¹
Human alpha-synuclein [2]
  KD improvement: 2.5 fold
  Ka: 4.4e+07 M⁻¹
  Kd: 22.7 nM
  koff: 0.000944 s⁻¹
  kon: 41600 M⁻¹ s⁻¹
Human alpha-synuclein [3]
  KD improvement: 2.5 fold
  Ka: 4.4e+07 M⁻¹
  Kd: 22.7 nM
  koff: 0.000944 s⁻¹
  kon: 41600 M⁻¹ s⁻¹

B3: 9C12 (antibody, V domains shown)
VH: B2 VH with F64I
VL: EIVLTQSPATLSLSPGERATLSCSASSSVSYMHWYQQKPGQAPRRLIYDTSKLASGVPARFSGSGSGTDYTLTISSLEPEDFAVYYCQQWSSNPPTFGQGTKLEIK
Human alpha-synuclein [2]
  KD improvement: 10 fold
  Ka: 1.78e+08 M⁻¹
  Kd: 5.62 nM
  koff: 0.000278 s⁻¹
  kon: 49500 M⁻¹ s⁻¹

B4: 8D9 (antibody, V domains shown)
VH: B2 VH with M108K
VL: B3 VL with M32I, L46W
Human alpha-synuclein [2]
  KD improvement: 8.7 fold
  Ka: 1.53e+08 M⁻¹
  Kd: 6.52 nM
  koff: 0.000483 s⁻¹
  kon: 74100 M⁻¹ s⁻¹

B5: 2E6-HLD-2 (antibody, V domains shown)
VH: B2 VH with M37V
VL: B2 VL
notes: Humanized 2E6
Human alpha-synuclein [1]
  KD improvement: 1 fold
  Ka: 2.04e+08 M⁻¹
  Kd: 4.91 nM
  koff: 0.000285 s⁻¹
  kon: 58000 M⁻¹ s⁻¹

B6: 2E6 HLD 3 (antibody, V domains shown)
VH: B2 VH with A68V
VL: B2 VL
Human alpha-synuclein [1]
  KD improvement: 1 fold
  Ka: 1.88e+08 M⁻¹
  koff: 0.00026 s⁻¹
  kon: 48900 M⁻¹ s⁻¹

B7: 7C4 (antibody, V domains shown)
VH: B2 VH with S31R, L45P
VL: B3 VL with Y31F, L46W
Human alpha-synuclein [2]
  KD improvement: 7 fold
  Ka: 1.23e+08 M⁻¹
  Kd: 8.12 nM
  koff: 0.000997 s⁻¹
  kon: 123000 M⁻¹ s⁻¹

B8: 9E4 (antibody, V domains shown)
VH: EVQLVESGGGLVQPGGSLRLSCAASGFTFSNYGMSWVRQAPGKGLEWVASISSGGGSTYYPDNVKGRFTISRDNAKNSLYLQMNSLRAEDTAVYYCARGGAGIDYWGQGTLVTVSS
VL: DIQMTQSPSSLSASVGDRVTITCKSIQTLLYSSNQKNYLAWFQQKPGKAPKLLIYWASIRKSGVPSRFSGSGSGTDFTLTISSLQPEDLATYYCQQYYSYPLTFGGGTKLEIKR
notes: Generated from the VH and VL of hybridoma PTA-8221; also called comparator antibody 9E4
Human alpha-synuclein [4]
  Ka: 2.58e+08 M⁻¹
  Kd: 3.88 nM

B9: GM37 (antibody, V domains shown)
VH: EVQLLESGGGLVQTGGSLRLSCAASGFTFSSYAMTWVRQAPGKGLEWVSAIRSNGDRTDYADSVKGRFTISRDNSQNTLYLQMNSLRAEDTAVYYCAKNWAPFDSWGQGTLVT
VL: not shown
notes: also called GM37wt; GM37 wt
Human alpha-synuclein [5]
  Ka: 2.33e+08 M⁻¹
  Kd: 4.29 nM
Human gamma-synuclein [6]
  binding result: no binding
Human beta-synuclein [7]
  binding result: no binding
Human alpha-synuclein [8]
  Kd: 27 nM and 28 nM
  koff: 0.0192 s⁻¹ and 0.0148 s⁻¹
  kon: 701000 M⁻¹ s⁻¹ and 528000 M⁻¹ s⁻¹

B10: GM37 variant 1 (antibody, V domains shown)
VH: B9 VH with N54S
VL: not shown
Human alpha-synuclein [8]
  Kd: 22 nM
  koff: 0.0137 s⁻¹
  kon: 634000 M⁻¹ s⁻¹

B11: GM37 variant 3 (antibody, V domains shown)
VH: B9 VH with N54H
VL: not shown
Human alpha-synuclein [8]
  Kd: 40 nM
  koff: 0.0228 s⁻¹
  kon: 577000 M⁻¹ s⁻¹

B12: GM285 (antibody, V domains shown)
VH: EVQLLESGGGLVQPGGSLRLSCAASGFTFSRFTMTWVRQAPGKGLEWVSAISGSGGGTSYADSVKGRLTVSRDNSKNTLYLQMNSLRAEDTAVYYCAKNWAPFDYWGQGTLVT
VL: not shown
notes: Human IgG1/kappa
Human gamma-synuclein [9]
  binding result: no binding
Human beta-synuclein [10]
  binding result: no binding
Human alpha-synuclein [11]
  Ka: 2.33e+08 M⁻¹
  Kd: 4.3 nM
